Experimental data reported in patent US20260151508A1 (BEAM THERAPEUTICS, published 2026).

Experiments:
[1] = target: T1, PiM+Bystander (D365G) human alpha-1 antitrypsin (AAT) protein, bacterially expressed (human, UniProt P01009 25-418); assay: in vitro neutrophil elastase binding assay, bacterially expressed AAT
T1 construct: Wild-type AAT altered to include D365G; also called D365G AAT protein; AAT protein with a D365G alteration

[2] = target: T2, PiM (wild type) human alpha-1 antitrypsin (AAT) protein, bacterially expressed (human, UniProt P01009 25-418); assay: as above
T2 construct: The signal peptide is left out here; also called PiM (WT) AAT; wild-type AAT
T2 sequence (P01009 25-418): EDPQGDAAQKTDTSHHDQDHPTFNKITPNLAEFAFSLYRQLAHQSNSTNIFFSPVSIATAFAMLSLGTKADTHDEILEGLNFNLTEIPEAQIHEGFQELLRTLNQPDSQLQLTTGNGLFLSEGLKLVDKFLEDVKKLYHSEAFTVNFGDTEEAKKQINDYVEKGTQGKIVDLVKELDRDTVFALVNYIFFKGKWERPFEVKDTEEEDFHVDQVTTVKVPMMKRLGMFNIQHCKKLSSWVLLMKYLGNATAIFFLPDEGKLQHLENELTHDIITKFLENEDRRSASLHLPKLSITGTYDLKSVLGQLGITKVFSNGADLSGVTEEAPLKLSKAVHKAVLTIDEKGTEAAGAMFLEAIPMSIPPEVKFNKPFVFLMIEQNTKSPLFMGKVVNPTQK

T1 sequence (P01009 25-418 D365G): as the sequence (P01009 25-418) above, with D341G counted along it

binding result [1]: binds
binding result [2]: binds
B1: human neutrophil elastase (enzyme, UniProt P08246 30-247, looked up)
chain: IVGGRRARPHAWPFMVSLQLRGGHFCGATLIAPNFVMSAAHCVANVNVRAVRVVLGAHNLSRREPTRQVFAVQRIFENGYDPVNLLNDIVILQLNGSATINANVQVAQLPAQGRRLGNGVQCLAMGWGLLGRNRGIASVLQELNVTVVTSLCRRSNVCTLVRGRQAGVCFGDSGSPLVCNGLIHGIASFVRGGCASGLYPDAFAPVAQFVNWIDSIIQ
notes: also called HNE
